Experimental data reported in patent publication US20240361316A1 (ORASURE TECHNOLOGIES, published 2024).

Molecular target: recombinant SARS-CoV-2 Spike 1 subunit (S1), Alpha S1 construct 1 (SARS-CoV-2 (WHO Alpha (WT) variant, …, UniProt P0DTC2 14-674))

B1: recombinant biotinylated human angiotensin-converting enzyme 2 (ACE2-biotin), construct hACE-GS-6xHIS (receptor)
chain: STIEEQAKTFLDKFNHEAEDLFYQSSLASWNYNTNITEENVQNMNNAGDKWSAFLKEQSTLAQMYPLQEIQNLTVKLQLQALQQNGSSVLSEDKSKRLNTILNTMSTIYSTGKVCNPDNPQECLLLEPGLNEIMANSLDYNERLWAWESWRSEVGKQLRPLYEEYVVLKNEMARANHYEDYGDYWRGDYEVNGVDGYDYSRGQLIEDVEHTFEEIKPLYEHLHAYVRAKLMNAYPSYISPIGCLPAHLLGDMWGRFWTNLYSLTVPFGQKPNIDVTDAMVDQAWDAQRIFKEAEKFFVSVGLPNMTQGFWENSMLTDPGNVQKAVCHPTAWDLGKGDFRILMCTKVTMDDFLTAHHEMGHIQYDMAYAAQPFLLRNGANEGFHEAVGEIMSLSAATPKHLKSIGLLSPDFQEDNETEINFLLKQALTIVGTLPFTYMLEKWRWMVFKGEIPKDQWMKKWWEMKREIVGVVEPVPHDETYCDPASLFHVSNDYSFIRYYTRTLYQFQFQEALCQAAKHEGPLHKCDISNSTEAGQKLFNMLRLGKSEPWTLALENVVGAKNMNVRPLLNYFEPLFTWLKDQNKNSFVGWSTDGGGGSGGGGSHHHHHHH
modifications: biotinylated, 1-10 biotins per ACE2 [mole:mole]; positions not given
  EC50: 0.5 nM
